Patent US9192648

Target: complement C5
Experiment: assay for the IC50 not described; told with the direct binding to C5 (FIG. 4C)

Substance: EV576 protein (from UniProt Q5YD59 19-168)
- IC50: 20 µg/mL
